Measurements published in PMC9605926, “Safety of [^177Lu]Lu-NeoB treatment: a preclinical study characterizing absorbed dose and acute, early, and late organ toxicity” (European Journal of Nuclear Medicine and Molecular Imaging, 2022).
Values joined by “and” are separate entries in the source; they are usually repeats but may differ in a detail not shown here. Equal values may be shown once. Read-outs that look alike come from different tables or passages of the source.

Legend:
healthy Balb/c mice [1] = assay: Toxicity study, clinical chemistry; assay type: in vivo, mouse; details: 5, 11, 19, 30, 43 wk, mean±SD
Experimental: (§1) Five different experimental groups (10 male and 10 female healthy animals per group; n = 100) were included in the radiotoxicity study and treated as follows: control group 1: 3 × vehicle (PBS + kolliphor HS 15 (1 mg/mL)); control group 2: 3 × 1200 pmol [^175Lu]Lu-NeoB; treatment group 1: 3 × 40 MBq/400 pmol [^177Lu]Lu-NeoB; treatment group 2: 3 × 80 MBq/800 pmol [^177Lu]Lu-NeoB; and treatment group 3: 3 × 120 MBq/1200 pmol [^177Lu]Lu-NeoB.
(§2) Animals received 3 injections with an interval of 7 days between each injection.
In addition, the following clinical chemistry parameters were measured: sodium, potassium chloride, calcium, glucose, creatinine, urea, alanine aminotransferase (ALT), aspartate aminotransferase (AST), alkaline phosphatase (ALP), amylase, lipase, and cholesterol, using the Roche/Hitachi cobas c systems according to the standard protocol. To reach the volume necessary for measuring the clinical chemistry parameters, the blood plasma was diluted 3–5 times with demineralized water.

[2] = Biodistribution of [177Lu]Lu-NeoB in healthy Balb/c mice, single i.v. injection, organ uptake by gamma counter; assay type: in vivo; details: male, mouse, pancreas, iv, total radioactivity, 1 h p.i., read-out: Pancreatic uptake
Experimental: Both the biodistribution and the radiotoxicity of [^177Lu]Lu-NeoB were studied after administration of 3 different dosages of the radioligand: 40 MBq/400 pmol [^177Lu]Lu-NeoB, 80 MBq/800 pmol [^177Lu]Lu-NeoB, and 120 MBq/1200 pmol [^177Lu]Lu-NeoB. The different dosages were acquired by diluting the stock [^177Lu]Lu-NeoB solution with PBS + kolliphor HS 15 (1 mg/mL). [^177Lu]Lu-NeoB was administered intravenously (tail) to conscious animals in a total volume of 200 µL.
Each dosage of [^177Lu]Lu-NeoB was injected in N = 15 healthy male animals. At 5 different time points post injection (p.i.) (t = 1, 4, 24, 48, and 96 h), 3 animals per dosage group were sacrificed, after which blood and organs were collected and measured to determine radioactivity uptake.
Since in the radiotoxicity studies animals received 3 injections of the radioligand at 1-week intervals, an additional group of 3 male animals were injected twice with 120 MBq/1200 pmol [^177Lu]Lu-NeoB at a 7 days (168 h) interval. […] In addition, to determine the amount of radioactivity remaining in the blood and organs right before a second injection, 3 additional male animals were injected with 40 MBq/400 pmol [^177Lu]Lu-NeoB and the biodistribution was determined at t = 168 h. […]
In the biodistribution study, the adrenal glands, brain, intestines, heart, kidneys, liver, lungs, mammary fat pad, pancreas, muscle, spleen, stomach, prostate gland (M), testes (M), ovaries (F), and urinary bladder were collected, weighed, and measured for radioactivity uptake using a gamma counter (1480 WIZARD automatic γ counter; PerkinElmer). To calculate the percentage injected activity (%IA), a vial containing 200 µL of a 1:1000 dilution of the injected [^177Lu]Lu-NeoB solutions was also measured in the gamma counter. The %IA of all organs and tumor was corrected for the percentage of radioactivity left measured in the tail (injection site).

healthy Balb/c mice [3] = assay: Toxicity study, hematology (same groups as A3); assay type: in vivo, mouse; details: 5, 11, 19, 30, 43 wk, mean±SD
Experimental: as §1, §2
Throughout the study, the animals were observed daily to check for physical signs of toxicity and signs of discomfort, and animals were weighed 2–3 times per week. Furthermore, at week -1, 5, 11, 19, 30, and 43, blood samples were collected by submandibular puncture from all animals that were in the study at that time point. All blood samples were analyzed for hematological parameters (hematocrit; hemoglobin; red blood cell count; white blood cell count; hemoglobin; mean cell hemoglobin concentration; mean cell volume; platelet count) on the scilVet abc + counter (Covetrus).

In the case of `CC(C)CC(CC(C)C)NC(=O)[C@H](Cc1cnc[nH]1)NC(=O)CNC(=O)[C@@H](NC(=O)[C@H](C)NC(=O)[C@H](Cc1c[nH]c2ccccc12)NC(=O)[C@H](CCC(N)=O)NC(=O)[C@@H](Cc1ccccc1)NC(=O)COCC(=O)Nc1ccc(CNC(=O)CN2CCN(CC(=O)O)CCN(CC(=O)O)CCN(CC(=O)O)CC2)cc1)C(C)C` [[^177Lu]Lu-NeoB, metal not drawn], the “Alk. Phosphatase” value (healthy Balb/c mice [1]; female, treatment group 1) is reported as 104.70 ± 11.61 U/L and 85.71 ± 8.98 U/L and 68.75 ± 4.76 U/L and 75.00 ± 0.00 U/L and 86.67 ± 16.07 U/L, the Urea (healthy Balb/c mice [1]; female, treatment group 1) is reported as 6.84 ± 1.27 mmol/L and 7.24 ± 1.10 mmol/L and 7.29 ± 1.04 mmol/L and 7.00 ± 1.78 mmol/L and 6.00 ± 0.00 mmol/L and the “Alk. Phosphatase” value (healthy Balb/c mice [1]; female, treatment group 2) is reported as 88.75 ± 7.50 U/L and 96.60 ± 11.73 U/L and 92.57 ± 8.90 U/L and 75.00 ± 8.16 U/L and 87.50 ± 8.66 U/L. For the same compound, the Urea (healthy Balb/c mice [1]; female, treatment group 2) was 8.13 ± 2.95 mmol/L and 9.48 ± 0.83 mmol/L and 7.41 ± 0.62 mmol/L and 6.64 ± 1.07 mmol/L and 7.50 ± 0.71 mmol/L, the “Alk. Phosphatase” value (healthy Balb/c mice [1]; female, treatment group 3) was 96.00 ± 15.81 U/L and 93.00 ± 4.65 U/L and 81.43 ± 10.69 U/L and 90.00 ± 9.13 U/L and 110.00 ± 26.46 U/L and the Urea (healthy Balb/c mice [1]; female, treatment group 3) was 8.94 ± 1.32 mmol/L and 7.97 ± 1.26 mmol/L and 8.50 ± 1.80 mmol/L and 9.25 ± 2.40 mmol/L and 8.63 ± 2.56 mmol/L. For the same compound, the “Alk. Phosphatase” value (healthy Balb/c mice [1]; male, treatment group 1) was 114.00 ± 8.28 U/L and 98.57 ± 4.04 U/L and 70.00 ± 0.00 U/L and 85.00 ± 10.00 U/L and 68.33 ± 20.82 U/L, the Urea (healthy Balb/c mice [1]; male, treatment group 1) was 7.44 ± 0.85 mmol/L and 6.60 ± 0.60 mmol/L and 7.00 ± 0.00 mmol/L and 7.50 ± 0.00 mmol/L and the “Alk. Phosphatase” value (healthy Balb/c mice [1]; male, treatment group 2) was 75.00 ± 15.81 U/L and 112.40 ± 16.22 U/L and 96.86 ± 9.44 U/L and 85.00 ± 0.00 U/L and 80.00 ± 0.00 U/L. For the same compound, the Urea (healthy Balb/c mice [1]; male, treatment group 2) was 7.33 ± 1.26 mmol/L and 7.46 ± 1.14 mmol/L and 7.24 ± 1.41 mmol/L and 7.13 ± 0.85 mmol/L and 8.00 ± 1.35 mmol/L, the “Alk. Phosphatase” value (healthy Balb/c mice [1]; male, treatment group 3) was 103.20 ± 13.73 U/L and 99.43 ± 5.59 U/L and 83.75 ± 7.50 U/L and 87.50 ± 8.66 U/L and 80.00 ± 17.80 U/L and the Urea (healthy Balb/c mice [1]; male, treatment group 3) was 7.59 ± 1.51 mmol/L and 6.77 ± 0.71 mmol/L and 7.25 ± 0.87 mmol/L and 6.50 ± 0.00 mmol/L and 6.75 ± 1.04 mmol/L. The tissue uptake at 1 h ([2]; 40 MBq/400 pmol) was 8.27 ± 0.8 %ID/g, the tissue uptake at 1 h ([2]; 80 MBq/800 pmol) was 4.05 ± 0.4 %ID/g and the tissue uptake at 1 h ([2]; 120 MBq/1200 pmol) was 1.79 ± 0.2 %ID/g. The WBC (healthy Balb/c mice [3]; female, treatment group 1) was 6.20 ± 2.24 103/mm3 and 7.60 ± 3.77 103/mm3 and 6.80 ± 1.64 103/mm3 and 9.70 ± 2.96 103/mm3 and 7.20 ± 3.97 103/mm3, the WBC (healthy Balb/c mice [3]; female, treatment group 2) was 9.10 ± 3.17 103/mm3 and 5.89 ± 2.56 103/mm3 and 7.97 ± 2.09 103/mm3 and 6.74 ± 1.77 103/mm3 and 8.98 ± 1.67 103/mm3 and the WBC (healthy Balb/c mice [3]; male, treatment group 1) was 8.08 ± 2.38 103/mm3 and 8.53 ± 1.17 103/mm3 and 8.12 ± 1.98 103/mm3 and 9.77 ± 2.82 103/mm3 and 7.53 ± 0.83 103/mm3. The WBC (healthy Balb/c mice [3]; male, treatment group 2) was 7.30 ± 2.24 103/mm3 and 6.65 ± 2.80 103/mm3 and 9.61 ± 1.52 103/mm3 and 8.68 ± 0.34 103/mm3 and 11.13 ± 3.50 103/mm3.
